Experimental findings from paper PMC12422969 are described below.

This test deals with GluA3-G (GluA3(Gly439)), flip splice form, R/G-edited, as the GluA3 part of the GluA3-G–TARP-γ2 tandem construct (rat). The experiment in a line: cryo-EM structure; apo state; GluA3–TARP-γ2 tandem construct purified as a complex from Expi293 cells (digitonin lysis; 50 mM Tris pH 8, 150 mM NaCl, 0.1% GDN), 2–3 mg/ml, vitrified at 4 °C.

Take “GluA3-G (GluA3(Gly439)), flip splice form, R/G-edited, as the GluA3 part of the GluA3-G–TARP-γ2 tandem construct (receptor)”: the stoichiometry N (as a rule, a count of units in the complex or per binding partner) amounted to 4.
